B1: CPEB3 Ribozyme (parent)
chain: UAACAGGGGGCCACAGCAGAAGCGUUCACGUCGCAGCCCCUGUCAGAUUCUGGUGAAUCUGCGAAUUCUGCUGUAUAUCUC

In the data set the parent is B1. Nature of the data set: self-cleavage, relative activity (ratio to wild type); higher = more cleavage; in vitro, sequencing. The method in brief: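 For each CPEB3 ribozyme variant, relative activity is its cleaved/total read fraction divided by the unmutated ribozyme's. Barcoded error-prone PCR libraries were transcribed by T7 RNA polymerase (5 hours, 37°C) and held in DNase I for 15 min before an EDTA stop, with cleavage occurring throughout. Template-switching reverse transcription and Illumina sequencing were used to read the RNAs. A 5-read minimum applied, and results are the mean of three batches.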
On to UAACAGGGGGCCACAGCAGAAGCGUUCACGUCGCAGCCCCUGUCAGAUCCUGGUGAAUCUGCGAAUCCUGCUGUAUAUCUC [U49C U67C], for which the self-cleavage turned out to be 0.23.

Consider UAACAGGGGGCCACAGCAGAAGCGUUCACGUCGCAGCCCCUGUCAGAUCCUGGUGAAUCUGCGAAUGCUGCUGUAUAUCUC [U49C U67G], for which the self-cleavage worked out at 0.32.

On to UAACAGGGGGCCACAGCAGAAGCGUUCACGUCGCAGCCCCUGUCAGAUCCUGGUGAAUCUGCGAAUACUGCUGUAUAUCUC [U49C U67A], for which the self-cleavage is 0.28.

Regarding UAACAGGGGGCCACAGCAGAAGCGUUCACGUCGCAGCCCCUGUCAGAUGCUGGUGGAUCUGCGAAUUCUGCUGUAUAUCUC [U49G A56G], the self-cleavage is 0.35.

Take UAACAGGGGGCCACAGCAGAAGCGUUCACGUCGCAGCCCCUGUCAGAUGCUGGUGUAUCUGCGAAUUCUGCUGUAUAUCUC [U49G A56U]: the self-cleavage was 0.65.

For UAACAGGGGGCCACAGCAGAAGCGUUCACGUCGCAGCCCCUGUCAGAUCCUGGUGAAUCUGCGAAUUCUGCUGUAUAUUUC [U49C C79U], the self-cleavage was 0.76.

As for UAACAGGGGGCCACAGCAGAAGCGUUCACGUCGCAGCCCCUGUCAGAUCCUGGUGAAUCUGCGAAUUCUGCUGUAUAUCUA [U49C C81A], the self-cleavage was found to be 0.76.

Consider UAACAGGGGGCCACAGCAGAAGCGUUCACGUCGCAGCCCCUGUCAGAUCCUGGUGAAUCUGCGAAUUCUGCUGUAUAUCUG [U49C C81G], for which the self-cleavage amounted to 0.51.

For the variant UAACAGGGGGCCACAGCAGAAGCGUUCACGUCGCAGCCCCUGUCAGAUCCUGGUGAAUCUGCGAAUUCUGCUGUAUAUCUU [U49C C81U], the self-cleavage was determined as 0.68.

As for UAACAGGGGGCCACAGCAGAAGCGUUCACGUCGCAGCCCCUGUCAGAUCCUGGUGAAUUUGCGAAUUCUGCUGUAUAUCUC [U49C C59U], the self-cleavage amounted to 0.09.

For UAACAGGGGGCCACAGCAGAAGCGUUCACGUCGCAGCCCCUGUCAGAUCCUGGUGAAUAUGCGAAUUCUGCUGUAUAUCUC [U49C C59A], the self-cleavage turned out to be 0.09.

In the case of UAACAGGGGGCCACAGCAGAAGCGUUCACGUCGCAGCCCCUGUCAGAUGCUGGUGAAUCUGCGAAUUCUGCUGUAUAUCUC [U49G], the self-cleavage was 0.52.

For the variant UAACAGGGGGCCACAGCAGAAGCGUUCACGUCGCAGCCCCUGUCAGAUCCUGGUGAAUCUGCAAAUUCUGCUGUAUAUCUC [U49C G63A], the self-cleavage was determined as 0.39.

With UAACAGGGGGCCACAGCAGAAGCGUUCACGUCGCAGCCCCUGUCAGAUCCUGGUGAAUCUGCUAAUUCUGCUGUAUAUCUC [U49C G63U], the self-cleavage worked out at 0.35.

On to UAACAGGGGGCCACAGCAGAAGCGUUCACGUCGCAGCCCCUGUCAGAUCCUGGUGAAUCUCCGAAUUCUGCUGUAUAUCUC [U49C G61C], for which the self-cleavage was 0.33.

Take UAACAGGGGGCCACAGCAGAAGCGUUCACGUCGCAGCCCCUGUCAGAUCCUGGUGAAUCUACGAAUUCUGCUGUAUAUCUC [U49C G61A]: the self-cleavage came out at 0.19.

As to UAACAGGGGGCCACAGCAGAAGCGUUCACGUCGCAGCCCCUGUCAGAUCCUGGUGAAUCUGAGAAUUCUGCUGUAUAUCUC [U49C C62A], the self-cleavage is 0.17.

Turning to UAACAGGGGGCCACAGCAGAAGCGUUCACGUCGCAGCCCCUGUCAGAUCCUGGUGAAUCUGGGAAUUCUGCUGUAUAUCUC [U49C C62G], the self-cleavage is 0.46.

Consider UAACAGGGGGCCACAGCAGAAGCGUUCACGUCGCAGCCCCUGUCAGAUCCUGGUGAAUCUGUGAAUUCUGCUGUAUAUCUC [U49C C62U], for which the self-cleavage turned out to be 0.33.

Consider UAACAGGGGGCCACAGCAGAAGCGUUCACGUCGCAGCCCCUGUCAGAUCCUGGUGAAUCUGCGAAUUCUGCUGUACAUCUC [U49C U76C], for which the self-cleavage came out at 0.48.

Regarding UAACAGGGGGCCACAGCAGAAGCGUUCACGUCGCAGCCCCUGUCAGAUCCUGGUGAAUCUGCGAAUUCUGCUGUAAAUCUC [U49C U76A], the self-cleavage was found to be 0.49.

On to UAACAGGGGGCCACAGCAGAAGCGUUCACGUCGCAGCCCCUGUCAGAUCCUGGUGAAUCUGCGAAUUCUGCUGAAUAUCUC [U49C U74A], for which the self-cleavage is 0.71.

Turning to UAACAGGGGGCCACAGCAGAAGCGUUCACGUCGCAGCCCCUGUCAGAUCCUGGUGAAUCUGCGAAUUCUGCUGGAUAUCUC [U49C U74G], the self-cleavage is 0.59.

For UAACAGGGGGCCACAGCAGAAGCGUUCACGUCGCAGCCCCUGUCAGAUCCUGGUGAAUCUGCGAAUUCUGCUGCAUAUCUC [U49C U74C], the self-cleavage was 0.65.

With UAACAGGGGGCCACAGCAGAAGCGUUCACGUCGCAGCCCCUGUCAGAUCCAGGUGAAUCUGCGAAUUCUGCUGUAUAUCUC [U49C U51A], the self-cleavage was 0.49.

UAACAGGGGGCCACAGCAGAAGCGUUCACGUCGCAGCCCCUGUCAGAUCCCGGUGAAUCUGCGAAUUCUGCUGUAUAUCUC [U49C U51C]: the self-cleavage worked out at 0.38.

In the case of UAACAGGGGGCCACAGCAGAAGCGUUCACGUCGCAGCCCCUGUCAGAUCCGGGUGAAUCUGCGAAUUCUGCUGUAUAUCUC [U49C U51G], the self-cleavage worked out at 0.36.

Consider UAACAGGGGGCCACAGCAGAAGCGUUCACGUCGCAGCCCCUGUCAGAUCCUGGUGAAUCAGCGAAUUCUGCUGUAUAUCUC [U49C U60A], for which the self-cleavage turned out to be 0.22.

Consider UAACAGGGGGCCACAGCAGAAGCGUUCACGUCGCAGCCCCUGUCAGAUCCUGGUGAAUCCGCGAAUUCUGCUGUAUAUCUC [U49C U60C], for which the self-cleavage is 0.22.

In the case of UAACAGGGGGCCACAGCAGAAGCGUUCACGUCGCAGCCCCUGUCAGAUCCUGGUGAAUCGGCGAAUUCUGCUGUAUAUCUC [U49C U60G], the self-cleavage amounted to 0.13.

Consider UAACAGGGGGCCACAGCAGAAGCGUUCACGUCGCAGCCCCUGUCAGAUCCUGGUGAAUCUGCGAAUUCUGCUGUAUAGCUC [U49C U78G], for which the self-cleavage stood at 0.39.

For the variant UAACAGGGGGCCACAGCAGAAGCGUUCACGUCGCAGCCCCUGUCAGAUCCUGGUGAAUCUGCGAAUUCUGCUGUAUACCUC [U49C U78C], the self-cleavage was found to be 0.42.

On to UAACAGGGGGCCACAGCAGAAGCGUUCACGUCGCAGCCCCUGUCAGAUCCUGGUGAAUCUGCGAAUUCUGCUGUAUAACUC [U49C U78A], for which the self-cleavage stood at 0.46.

In the case of UAACAGGGGGCCACAGCAGAAGCGUUCACGUCGCAGCCCCUGUCAGAUCCUGGUGAAUCUGCGAAUUCUGCCGUAUAUCUC [U49C U72C], the self-cleavage was determined as 0.36.

The record behind these values is the RNAGym collection of RNA variant scans (doi:10.1093/nar/gkz1192).
